For the test, the target named is T1, human β1 adrenergic receptor (Homo sapiens, UniProt P08588).
T1 construct: also called β1-AR; ß1-AR; source: HEK cells, stably transfected (HEK-β1), on cells
Briefly: flow cytometry on cells; HEK and HEK-β1 cells incubated with mAb 17.2 (500 nM) 1 h at room temperature in supplemented DMEM; Cy3-conjugated goat anti-mouse IgG; propidium iodide to exclude dead cells. The settings on record: one partner purified. In general terms: In flow cytometry, cells or beads pass a laser one at a time.

T1 sequence (P08588 whole entry): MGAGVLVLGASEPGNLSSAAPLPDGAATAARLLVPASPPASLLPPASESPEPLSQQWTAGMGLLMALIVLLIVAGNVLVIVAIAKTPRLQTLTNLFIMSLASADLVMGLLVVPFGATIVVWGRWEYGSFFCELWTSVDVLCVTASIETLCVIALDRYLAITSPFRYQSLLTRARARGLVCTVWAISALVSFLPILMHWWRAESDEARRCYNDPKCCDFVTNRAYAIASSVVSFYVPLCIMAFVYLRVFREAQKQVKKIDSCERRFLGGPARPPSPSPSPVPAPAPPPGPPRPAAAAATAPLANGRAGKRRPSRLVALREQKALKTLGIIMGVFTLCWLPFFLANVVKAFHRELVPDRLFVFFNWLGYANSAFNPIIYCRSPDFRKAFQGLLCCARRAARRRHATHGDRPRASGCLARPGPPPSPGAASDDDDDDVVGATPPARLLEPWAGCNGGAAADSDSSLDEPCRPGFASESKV

B1: murine monoclonal antibody 17.2 (antibody, V domains shown)
VH: EVQLEESGGRLVQPKGSLKLSCAASGFSFNTNAMNWVRQAPGKGLEWVARIRSKINNYSTYYADSVKDRFTISRDDSQSMLYLQMNNLKTEDTAMYYCVRGTTYWGQGTLVTVSA
VL: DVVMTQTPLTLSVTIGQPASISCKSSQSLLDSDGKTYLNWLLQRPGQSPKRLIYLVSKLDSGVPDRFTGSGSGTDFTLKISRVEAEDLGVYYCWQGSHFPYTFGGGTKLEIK
notes: variable and CH1 domains as the heavy chain of m1 (PDB 3SGE, 3SGD); the rest is the mouse IgG1 constant region, not in the entries; as the light chain of m1 (kappa; PDB 3SGE, 3SGD); Whole IgG1, kappa; also called mAb 17.2; source: purified from ascitic fluid (40% ammonium sulphate, DEAE-Sephacel)
On to B1, for which the binding result is given as “binds”.

The record behind these values is PMC3206007, “Crystal Structure of the Complex mAb 17.2 and the C-Terminal Region of Trypanosoma cruzi P2β Protein: Implications in Cross-Reactivity” (PLoS Neglected Tropical Diseases, 2011).
